The source of these data is US20100035280A1 (Chugai, published 2010).

In assay [1] the target is T1, human desmoglein 3 (DSG3) (human, UniProt P32926 50-999).
T1 construct: Full-length DSG3 gene stably expressed on CHO DG44 cells (DSG3-DG44) for flow cytometry; also called DSG3-DG44 cells; DSG3-Ba/F3 cells
T1 sequence: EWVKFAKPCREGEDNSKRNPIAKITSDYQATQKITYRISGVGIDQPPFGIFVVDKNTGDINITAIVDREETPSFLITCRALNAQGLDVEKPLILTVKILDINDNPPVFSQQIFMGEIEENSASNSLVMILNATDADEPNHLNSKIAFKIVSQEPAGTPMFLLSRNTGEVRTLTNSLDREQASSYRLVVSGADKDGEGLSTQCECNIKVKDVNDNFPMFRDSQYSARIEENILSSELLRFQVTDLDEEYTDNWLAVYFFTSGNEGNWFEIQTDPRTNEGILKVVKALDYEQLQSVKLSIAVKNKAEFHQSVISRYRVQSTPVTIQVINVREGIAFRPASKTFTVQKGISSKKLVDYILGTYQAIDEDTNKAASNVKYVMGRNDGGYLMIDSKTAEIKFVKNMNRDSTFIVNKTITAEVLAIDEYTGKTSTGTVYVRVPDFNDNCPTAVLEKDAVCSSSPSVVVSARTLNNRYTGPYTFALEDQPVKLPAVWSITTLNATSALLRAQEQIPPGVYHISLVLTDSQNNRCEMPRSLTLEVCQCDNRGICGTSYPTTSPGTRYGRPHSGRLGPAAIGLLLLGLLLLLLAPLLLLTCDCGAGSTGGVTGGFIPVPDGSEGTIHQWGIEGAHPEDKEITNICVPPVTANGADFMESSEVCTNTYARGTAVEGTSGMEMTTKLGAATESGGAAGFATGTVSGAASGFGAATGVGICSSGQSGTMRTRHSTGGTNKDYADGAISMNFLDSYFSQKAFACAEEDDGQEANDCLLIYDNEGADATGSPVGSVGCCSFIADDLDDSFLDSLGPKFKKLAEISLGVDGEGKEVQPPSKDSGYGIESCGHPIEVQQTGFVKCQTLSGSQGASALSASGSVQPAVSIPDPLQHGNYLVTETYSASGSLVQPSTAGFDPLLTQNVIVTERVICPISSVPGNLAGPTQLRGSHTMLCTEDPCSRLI
As to the kind of experiment: flow cytometry screening on DSG3-DG44 cells. The method, then: Binding of the DF366 antibody to DSG3-DG44 cells was detected by flow cytometry. 5×10⁴ cells of DSG3-DG44 was reacted with 3 μg/mL of DF366 antibody on ice for 30 minutes, and then washed. Then, this was reacted with an FITC-labeled anti-mouse IgG antibody (Beckman Coulter) as the secondary antibody on ice for 30 minutes, washed, and then subjected to flow cytometry. FACS Calibur (Becton Dickinson) was used as the flow cytometer. The DF366 antibody bound to DSG3-DG44 cells, but not to the parental DG44 cells. Therefore, the DF366 antibody was confirmed to bind specifically to DSG3.

Assay [2] has as its target T1, human desmoglein 3 (DSG3). As to the kind of experiment: flow cytometry, FITC anti-mouse IgG secondary antibody. The method, then:
(§1) Binding of the DF366c antibody to DSG3-DG44 cells and DG44 cells was detected by flow cytometry. 3×10⁴ cells were reacted with 10 μg/mL of DF366c antibody on ice for one hour, and then washed. Then, this was reacted with an FITC-labeled anti-human IgG antibody (Beckman Coulter) as the secondary antibody on ice for one hour, washed, and then subjected to flow cytometry. FACS Calibur (Becton Dickinson) was used as the flow cytometer. DF366c antibody bound to DSG3-DG44 cells, but not to the parental DG44 cells. Therefore, the DF366c antibody was confirmed to bind specifically to DSG3.
The pMCD/G2a-DF366 and pMCN/k-DF366 plasmids were introduced into DG44 cells by electroporation. The CHO DF366m-DG44 cells, which stably express the mouse IgG2a chimeric DF366 antibody (DF366m) were established by selection in a nucleic acid (HT supplement)-free medium containing 500 μg/mL of Geneticin. Subsequently, the DF366m antibody was purified from the culture supernatant of DF366m-DG44 using a Hi Trap Protein G HP column. The solvent was substituted with PBS using a PD-10 column. The concentration of the DF366m antibody purified was quantified using a DC Protein Assay kit. The DF366m antibody was subjected to flow cytometric analysis to confirm that the antibody specifically binds to DSG3 in the same way as the DF366c antibody. […]

Assay [3] deals with T1, human desmoglein 3 (DSG3). In words: flow cytometry, 10 µg/mL antibody on DSG3-DG44 CHO cells. As for the experimental part: as §1
A general note: A flow cytometer gives signals particle by particle.

B1: DF366 antibody (antibody, V domains shown)
VH: EVQLQQSGPELVKPGASVKISCKASGYTFTDYNMDWVKQSHGESLEWIGYIYPNNGGSGYNQKFKSKATLTVDKSSSTAYMELHSLTSEDSAVYYCARRDSYYGFDMAWFAYWGQGTLVTVSA
VL: DIQMTQSPASLSASVGETVTITCRPSENIYNNLAWYQQKQGKSPQLLVYVATNLAEGVPSRFSGSGSGTRFSLKINSLQPEDFGKYYCQHSYGTPWTFGGGTKLEIK
notes: Mouse monoclonal antibody purified from hybridoma supernatant; also called anti-DSG3 antibody; anti-human desmoglein 3 antibody
B1: the binding result in assay [1] was “binds”.

B2: mouse IgG2a chimeric DF366 antibody (DF366m) (antibody)
heavy: EVQLQQSGPELVKPGASVKISCKASGYTFTDYNMDWVKQSHGESLEWIGYIYPNNGGSGYNQKFKSKATLTVDKSSSTAYMELHSLTSEDSAVYYCARRDSYYGFDMAWFAYWGQGTLVTVSAAKTTAPSVYPLAPVCGDTTGSSVTLGCLVKGYFPEPVTLTWNSGSLSSGVHTFPAVLQSDLYTLSSSVTVTSSTWPSQSITCNVAHPASSTKVDKKIEPRGPTIKPCPPCKCPAPNLLGGPSVFIFPPKIKDVLMISLSPIVTCVVVDVSEDDPDVQISWFVNNVEVHTAQTQTHREDYNSTLRVVSALPIQHQDWMSGKEFKCKVNNKDLPAPIERTISKPKGSVRAPQVYVLPPPEEEMTKKQVTLTCMVTDFMPEDIYVEWTNNGKTELNYKNTEPVLDSDGSYFMYSKLRVEKKNWVERNSYSCSVVHEGLHNHHTTKSFSRTPGK
light: DIQMTQSPASLSASVGETVTITCRPSENIYNNLAWYQQKQGKSPQLLVYVATNLAEGVPSRFSGSGSGTRFSLKINSLQPEDFGKYYCQHSYGTPWTFGGGTKLEIKRADAAPTVSIFPPSSEQLTSGGASVVCFLNNFYPKDINVKWKIDGSERQNGVLNSWTDQDSKDSTYSMSSTLTLTKDEYERHNSYTCEATHKTSTSPIVKSFNRNEC
notes: DF366 variable regions on mouse IgG2a/kappa constant regions, made in CHO DG44 cells; The full-length entries may include a signal peptide; also called DF366m antibody
Turning to B2, the binding result in assay [2] is “binds”.

B3: human IgG1 chimeric DF366 antibody (DF366c) (antibody)
heavy: not shown
light: DIQMTQSPASLSASVGETVTITCRPSENIYNNLAWYQQKQGKSPQLLVYVATNLAEGVPSRFSGSGSGTRFSLKINSLQPEDFGKYYCQHSYGTPWTFGGGTKLEIKRTVAAPSVFIFPPSDEQLKSGTASVVCLLNNFYPREAKVQWKVDNALQSGNSQESVTEQDSKDSTYSLSSTLTLSKADYEKHKVYACEVTHQGLSSPVTKSFNRGEC
notes: Mouse DF366 variable regions on human IgG1/kappa constant regions, made in CHO DG44 cells; The full-length entries may include a signal peptide; also called DF366c antibody
B3: in assay [3], the binding result is listed as “binds”.
